Results: patent US20200199241A1 (Chugai, published 2020)
Changes are numbered by the printed parent chain.

B1: IgG1-F264 (antibody)
heavy: QVQLQESGPGLVKPSETLSLTCAVSGHSISHDHAWSWVRQPPGEGLEWIGFISYSGITNYNPSLQGRVTISRDNSKNTLYLQMNSLRAEDTAVYYCARSLARTTAMDYWGEGTLVTVSSASTKGPSVFPLAPSSKSTSGGTAALGCLVKDYFPEPVTVSWNSGALTSGVHTFPAVLQSSGLYSLSSVVTVPSSSLGTQTYICNVNHKPSNTKVDKKVEPKSCDKTHTCPPCPAPELLGGPSVFLFPPKPKDTLYISRTPEVTCVVVDVSHEDPEVKFNWYVDGVEVHNAKTKPREEQYNSTYRVVSVLTVLHQDWLNGKEYKCKVSNKALPAPIEKTISKAKGQPREPQVYTLPPSRDELTKNQVSLTCLVKGFYPSDIAVEWASNGQPENNYKTTPPVLDSDGSFFLYSKLTVDKSRWQQGNVFSCSVMHEALHYHYTQKSLSLSP
light: not shown
notes: EU numbering; copies: 2 + 2
B2: IgG1-F265 (antibody)
heavy: B1 heavy with M430Y
light: not shown
notes: EU numbering; copies: 2 + 2
B3: IgG1-F270 (antibody)
heavy: B1 heavy with N327G, A384E, M430F
light: not shown
notes: EU numbering; copies: 2 + 2
B4: IgG1-F278 (antibody)
heavy: B1 heavy with T309Q, V310P
light: not shown
notes: EU numbering; copies: 2 + 2
B5: IgG1-F267 (antibody)
heavy: B1 heavy with T309Q, M430Y
light: not shown
notes: EU numbering; copies: 2 + 2
B6: IgG1-F285 (antibody)
heavy: B1 heavy with V310P, A384E, M430F
light: not shown
notes: EU numbering; copies: 2 + 2
B7: IgG1-F286 (antibody)
heavy: B1 heavy with S241K, V310P, M430Y
light: not shown
notes: EU numbering; copies: 2 + 2
B8: IgG1-F266 (antibody)
heavy: B1 heavy with T309A, M430Y
light: not shown
notes: EU numbering; copies: 2 + 2
B9: IgG1-F279 (antibody)
heavy: B1 heavy with V310P, Q313H
light: not shown
notes: EU numbering; copies: 2 + 2
B10: IgG1-F282 (antibody)
heavy: B1 heavy with V310P, M430L
light: not shown
notes: EU numbering; copies: 2 + 2
B11: IgG1-F275 (antibody)
heavy: B1 heavy with S241K, V310P
light: not shown
notes: EU numbering; copies: 2 + 2
B12: IgG1-F274 (antibody)
heavy: B1 heavy with E382A, M430F
light: not shown
notes: EU numbering; copies: 2 + 2
B13: IgG1-F269 (antibody)
heavy: B1 heavy with V307A, A384E, M430F
light: not shown
notes: EU numbering; copies: 2 + 2
B14: IgG1-F284 (antibody)
heavy: B1 heavy with V310P, A384E, M430Y
light: not shown
notes: EU numbering; copies: 2 + 2
B15: IgG1-F280 (antibody)
heavy: B1 heavy with S241K, D272F, V310P, A384E
light: not shown
notes: EU numbering; copies: 2 + 2
B16: IgG1-F268 (antibody)
heavy: B1 heavy with P240A, A384E, M430F
light: not shown
notes: EU numbering; copies: 2 + 2
B17: IgG1-F287 (antibody)
heavy: B1 heavy with V310P, E382A, M430F
light: not shown
notes: EU numbering; copies: 2 + 2
B18: IgG1-F277 (antibody)
heavy: B1 heavy with S241K, V310P, A384E, M430Y
light: not shown
notes: EU numbering; copies: 2 + 2
B19: IgG1-F283 (antibody)
heavy: B1 heavy with V310P, M430Y
light: not shown
notes: EU numbering; copies: 2 + 2
B20: IgG1-F288 (antibody)
heavy: B1 heavy with T258E
light: not shown
notes: EU numbering; copies: 2 + 2
B21: IgG1-F289 (antibody)
heavy: B1 heavy with T258E, A384E, M430Y
light: not shown
notes: EU numbering; copies: 2 + 2
B22: IgG1-F272 (antibody)
heavy: B1 heavy with E382A, A384E, M430F
light: not shown
notes: EU numbering; copies: 2 + 2

What follows are binders tested against T1, human FcRn (soluble human FcRn complexed with β2-microglobulin) (human, UniProt P61769 21-119, limits assumed) (assay: SPR, pH 7.0;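 also: antibodies captured on a Protein L sensor chip with human FcRn injected as analyte, KD calculated from fitted association and dissociation rate constants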).
T1 construct: also called hFcRn
T1 sequence (chain, as listed by the source limits assumed, chain 1 of 2): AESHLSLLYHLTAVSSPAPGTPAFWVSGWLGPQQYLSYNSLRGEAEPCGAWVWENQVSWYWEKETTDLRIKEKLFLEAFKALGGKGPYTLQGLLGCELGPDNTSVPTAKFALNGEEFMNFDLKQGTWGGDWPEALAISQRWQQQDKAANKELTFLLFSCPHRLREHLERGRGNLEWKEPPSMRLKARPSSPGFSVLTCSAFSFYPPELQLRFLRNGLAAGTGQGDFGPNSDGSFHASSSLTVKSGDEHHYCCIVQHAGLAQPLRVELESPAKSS
T1 sequence (P61769 21-119 limits assumed, chain 2 of 2): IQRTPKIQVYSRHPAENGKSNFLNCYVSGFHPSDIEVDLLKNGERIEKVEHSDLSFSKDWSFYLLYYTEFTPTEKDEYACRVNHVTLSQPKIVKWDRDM
B1 showed a Kd of 280 nM.
Work on B2 yielded a Kd of 680 nM.
In the case of B3, the Kd is reported as 660 nM.
B4 gave a Kd of 30 nM.
Binder B5 has a Kd of 320 nM.
In the case of B6, the Kd is reported as 99 nM.
In the case of B7, the Kd is reported as 120 nM.
With B8 the Kd was 470 nM.
B9 gave a Kd of 61 nM.
For B10, the Kd was 29 nM.
B11 showed a Kd of 42 nM.
In the case of B12, the Kd is reported as 760 nM.
Work on B13 yielded a Kd of 520 nM.
With B14 the Kd was 100 nM.
With B15 the Kd was 41 nM.
B16 gave a Kd of 630 nM.
In the case of B17, the Kd is reported as 100 nM.
In the case of B18, the Kd is reported as 130 nM.
B19 was tested, and the Kd was 100 nM.
B20 gave a Kd of 190 nM.
For B21, the Kd was 480 nM.
Binder B22 has a Kd of 680 nM.
